Patent US8076094

Key:
GST-H3 1-44 = GST-H3 1-44 (UniProt P68431)
[1] = system: GST control protein [GST: P08515]
GST-H3 1-15 T11A = GST-H3 1-15 T11A (UniProt P68431)
[2] = molecular target: histone H3 in nucleosomes purified from HeLa cells (UniProt P68431)

Substance | phosphorylation in in vitro kinase assay (32P, SDS-PAGE, autoradiography) (GST-H3 1-44) | phosphorylation in in vitro kinase assay (32P, SDS-PAGE, autoradiography) [1] | phosphorylation in in vitro kinase assay (GST-H3 1-15 T11A) | phosphorylation in in vitro kinase assay, Western blot with α-phosphoH3T11 [2]
Myc-PRK1, immunoprecipitated from 293 cell lysates | GST-H3 1-44 is phosphorylated by PRK1 | The GST control protein is not phosphorylated, thus demonstrating specificity | – | –
purified recombinant PRK1 (ProQinase GmbH) | – | – | mutation of threonine 11 to alanine in H3 1-15 (H3 1-15 T11A) abolishes phosphorylation | PRK1 phosphorylates nucleosomes at H3T11
